# Measurements reported in US12385902B2, “Methods for generating and screening compartmentalised peptide libraries” (UNIVERSITY OF SOUTHAMPTON, priority 2017, dated 2025).
# “Also recorded” adds a separate entry of the source.
# Tests used:
# AB42-GFP fusion = biological target: T1, AB42-GFP fusion (Homo sapiens, UniProt P05067); experiment: In vitro expression in microfluidic droplets of AB42-GFP fusion with cyclic peptide; aggregation assay read by FACS green fluorescence; format: biochemical; conditions: double emulsion droplets, IVTT 2 h at 37° C., relative to buffer alone, IVTT alone and cyclo-CA5
# T1 construct: In vitro expression in microfluidic droplets of AB42-GFP fusion with cyclo-TAFDR; made in house; host or cells: cell-free in vitro transcription/translation (IVTT)
# T1 sequence (P05067 672-713 limits assumed): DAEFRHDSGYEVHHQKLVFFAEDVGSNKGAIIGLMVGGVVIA
# Experimental: FIG. 17. In vitro expression in microfluidic droplets of AB42-GFP fusion with cyclo-TAFDR (SEQ ID NO: 7) (Matis et al.). Vector CSpDuetNpuHisAB42-GFP was utilised for the cloning of TAFDR (SEQ ID NO: 7) into MCS1. Thereafter, plasmid DNA was encapsulated into agarose droplets alongside isothermal DNA amplification reaction components and incubated overnight. Agarose beads were prepped as previously stated and re-encapsulated together with IVTT. A final emulsification step was performed to yield FACS compatible double emulsions. A negative control vector in the presence of CA5 was likewise constructed to verify cyclo-TAFDR (SEQ ID NO: 7) AB42-GFP aggregation inhibition.
# When GFP is produced as an aggregating fusion, its fluorescence is lost; however, when the aggregation is disrupted by TAFDR (SEQ ID NO: 7), the GFP can fluoresce. See Mathis et al., Nature Biomedical Engineering volume 1, pages 838-852 (2017).
# We have used the Δβ42 aggregation assay to assess the performance of the system of the invention. This assay has previously been combined with a SICLOPPS screen (Mathis et al.), so cyclo-TAFDR (SEQ ID NO: 7) is a validated positive cyclic peptide control.
# Vector CSpDuetNpuHisAB42-GFP was utilised for the cloning of TAFDR (SEQ ID NO: 7) into MCS1. […]
# [1] = test system: Alzheimer's protein Δβ42 fused to GFP; conditions: Mathis et al., Nature Biomedical Engineering 2017; cited from earlier work
# Sequence of Alzheimer's protein Δβ42 fused to GFP (P05067 672-713 limits assumed, stated change not applied): as the sequence (P05067 672-713 limits assumed) above
substance,measurement,setting,value
cyclo-TAFDR (cyclised),"green fluorescence (GFP) upon cyclic peptide expression, associated with disruption of Aβ aggregation",AB42-GFP fusion,positive shift in green fluorescence; also recorded: significant increase in fluorescence
same,inhibition of aggregation of Aβ42 fused to GFP,[1],inhibit aggregation
